Measurements: ChEMBL document CHEMBL3525955, “Glucuronidation of the red clover isoflavone irilone by liver microsomes from different species and human UDP-glucuronosyltransferases” (Drug Metab Dispos, 2011)
Each block holds one molecule with its values, some of them ahead of it.

What was measured:
Assay type in all cases: ADME
[1] = biological target: T1, UDP-glucuronosyltransferase 1A10 (Homo sapiens, UniProt Q9HAW8); experiment: Drug level assessed as human recombinant UGT1A10-mediated glucuronidation treated with irilone incubated for 5 mins prior to UDPGA addition measured after 90 mins by HPLC-DAD analysis; conditions: recombinant enzyme, 1.5 h
T1 sequence (Q9HAW8 whole entry): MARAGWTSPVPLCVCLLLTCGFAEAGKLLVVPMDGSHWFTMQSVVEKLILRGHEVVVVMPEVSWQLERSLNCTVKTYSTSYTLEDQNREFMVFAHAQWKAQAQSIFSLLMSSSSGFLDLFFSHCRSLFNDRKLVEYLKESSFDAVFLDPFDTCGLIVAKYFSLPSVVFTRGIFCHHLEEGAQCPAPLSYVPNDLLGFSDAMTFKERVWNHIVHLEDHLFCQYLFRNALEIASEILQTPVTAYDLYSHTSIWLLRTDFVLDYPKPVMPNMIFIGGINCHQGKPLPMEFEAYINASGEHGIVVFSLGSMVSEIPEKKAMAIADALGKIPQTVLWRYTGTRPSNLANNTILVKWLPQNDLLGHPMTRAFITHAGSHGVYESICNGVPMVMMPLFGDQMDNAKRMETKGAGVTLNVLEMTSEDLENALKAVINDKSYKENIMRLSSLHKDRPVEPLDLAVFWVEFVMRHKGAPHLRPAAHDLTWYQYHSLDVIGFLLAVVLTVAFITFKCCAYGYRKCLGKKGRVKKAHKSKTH

[2] = biological target: T2, UDP-glucuronosyltransferase 1A1 (Homo sapiens, UniProt P22309); experiment: Drug level assessed as human recombinant UGT1A1-mediated glucuronidation treated with 25 uM irilone incubated for 5 mins prior to UDPGA addition measured after 90 mins by HPLC-DAD analysis; conditions: recombinant enzyme, 1.5 h
T2 sequence (P22309 whole entry): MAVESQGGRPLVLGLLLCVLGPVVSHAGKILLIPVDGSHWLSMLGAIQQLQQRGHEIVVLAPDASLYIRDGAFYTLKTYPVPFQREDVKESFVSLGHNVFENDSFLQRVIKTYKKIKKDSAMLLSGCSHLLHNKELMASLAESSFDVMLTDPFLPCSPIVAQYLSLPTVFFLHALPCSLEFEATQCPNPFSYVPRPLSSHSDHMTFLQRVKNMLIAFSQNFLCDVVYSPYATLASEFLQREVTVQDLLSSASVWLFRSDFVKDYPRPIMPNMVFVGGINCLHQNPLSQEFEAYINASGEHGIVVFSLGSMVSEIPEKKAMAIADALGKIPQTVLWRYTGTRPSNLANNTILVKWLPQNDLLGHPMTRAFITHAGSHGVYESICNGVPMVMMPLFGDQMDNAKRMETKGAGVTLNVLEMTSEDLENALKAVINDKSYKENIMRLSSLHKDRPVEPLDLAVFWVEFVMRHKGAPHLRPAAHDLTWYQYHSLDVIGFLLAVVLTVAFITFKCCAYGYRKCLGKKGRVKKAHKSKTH

[3] = biological target: T3, UDP-glucuronosyltransferase 1A7 (Homo sapiens, UniProt Q9HAW7); experiment: Drug level assessed as human recombinant UGT1A7-mediated glucuronidation treated with 25 uM irilone incubated for 5 mins prior to UDPGA addition measured after 90 mins by HPLC-DAD analysis; conditions: recombinant enzyme, 1.5 h
T3 sequence (Q9HAW7 whole entry): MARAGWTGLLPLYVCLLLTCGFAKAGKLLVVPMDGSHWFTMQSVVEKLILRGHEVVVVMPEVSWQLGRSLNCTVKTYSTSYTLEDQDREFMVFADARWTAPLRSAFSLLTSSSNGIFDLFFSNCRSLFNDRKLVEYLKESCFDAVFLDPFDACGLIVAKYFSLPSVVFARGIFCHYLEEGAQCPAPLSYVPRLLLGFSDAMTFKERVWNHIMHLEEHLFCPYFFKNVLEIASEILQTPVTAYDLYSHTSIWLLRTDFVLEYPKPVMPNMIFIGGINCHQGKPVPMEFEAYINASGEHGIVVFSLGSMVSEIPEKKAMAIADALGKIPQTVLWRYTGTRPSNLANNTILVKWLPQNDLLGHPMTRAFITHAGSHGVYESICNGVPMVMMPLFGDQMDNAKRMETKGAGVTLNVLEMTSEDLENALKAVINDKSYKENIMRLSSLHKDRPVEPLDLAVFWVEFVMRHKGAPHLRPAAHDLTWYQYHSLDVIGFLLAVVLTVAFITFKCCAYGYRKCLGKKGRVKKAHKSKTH

[4] = biological target: T4, UDP-glucuronosyltransferase 1A8 (Homo sapiens, UniProt Q9HAW9); experiment: Drug level assessed as human recombinant UGT1A8-mediated glucuronidation treated with 25 uM irilone incubated for 5 mins prior to UDPGA addition measured after 90 mins by HPLC-DAD analysis; conditions: recombinant enzyme, 1.5 h
T4 sequence (Q9HAW9 whole entry): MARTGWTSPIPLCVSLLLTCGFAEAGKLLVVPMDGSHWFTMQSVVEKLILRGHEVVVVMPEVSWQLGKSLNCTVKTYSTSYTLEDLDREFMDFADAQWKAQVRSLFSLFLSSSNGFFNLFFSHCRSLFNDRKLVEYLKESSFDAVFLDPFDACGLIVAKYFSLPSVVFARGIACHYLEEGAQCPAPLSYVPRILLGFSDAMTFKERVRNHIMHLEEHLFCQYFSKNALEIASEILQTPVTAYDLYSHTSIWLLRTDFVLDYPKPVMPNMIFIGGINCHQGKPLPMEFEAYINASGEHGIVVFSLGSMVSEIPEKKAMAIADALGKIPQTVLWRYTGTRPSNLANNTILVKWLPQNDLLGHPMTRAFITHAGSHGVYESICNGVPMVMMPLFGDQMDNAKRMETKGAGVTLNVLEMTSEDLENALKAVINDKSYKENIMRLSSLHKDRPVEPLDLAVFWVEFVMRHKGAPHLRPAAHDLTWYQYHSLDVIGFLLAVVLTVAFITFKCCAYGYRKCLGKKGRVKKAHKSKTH

[5] = substrate: O=c1c(-c2ccc(O)cc2)coc2cc3c(c(O)c12)OCO3; experiment: Activity of human recombinant UGT1A7 assessed as IRI-O-5-monoglucuronide formation incubated for 5 mins prior to UDPGA addition measured after 90 mins by Eadie-Hoftsee plot analysis
[6] = substrate: O=c1c(-c2ccc(O)cc2)coc2cc3c(c(O)c12)OCO3; experiment: Activity of human recombinant UGT1A9 assessed as IRI-O-5-monoglucuronide formation incubated for 5 mins prior to UDPGA addition measured after 90 mins by Eadie-Hoftsee plot analysis
[7] = substrate: O=c1c(-c2ccc(O)cc2)coc2cc3c(c(O)c12)OCO3; experiment: Activity of human recombinant UGT1A10 assessed as IRI-O-4'-monoglucuronide formation incubated for 5 mins prior to UDPGA addition measured after 90 mins by Eadie-Hoftsee plot analysis
[8] = substrate: O=c1c(-c2ccc(O)cc2)coc2cc3c(c(O)c12)OCO3; experiment: Activity of human recombinant UGT1A8 assessed as IRI-O-5-monoglucuronide formation incubated for 5 mins prior to UDPGA addition measured after 90 mins by Eadie-Hoftsee plot analysis
[9] = substrate: O=c1c(-c2ccc(O)cc2)coc2cc3c(c(O)c12)OCO3; experiment: Activity of human recombinant UGT1A8 assessed as IRI-O-4'-monoglucuronide formation incubated for 5 mins prior to UDPGA addition measured after 90 mins by Eadie-Hoftsee plot analysis
[10] = substrate: O=c1c(-c2ccc(O)cc2)coc2cc3c(c(O)c12)OCO3; experiment: Activity of human recombinant UGT1A1 assessed as IRI-O-4'-monoglucuronide formation incubated for 5 mins prior to UDPGA addition measured after 90 mins by Eadie-Hoftsee plot analysis
[11] = substrate: O=c1c(-c2ccc(O)cc2)coc2cc3c(c(O)c12)OCO3; experiment: Activity of human recombinant UGT1A1 assessed as IRI-O-5-monoglucuronide formation incubated for 5 mins prior to UDPGA addition measured after 90 mins by Eadie-Hoftsee plot analysis

Drug metabolism [1]: metabolite_detected
Drug metabolism [2]: metabolite_detected
Drug metabolism [3]: metabolite_detected
Drug metabolism [4]: metabolite_detected
Molecule: O=C(O)[C@H]1O[C@@H](Oc2ccc(-c3coc4cc5c(c(O)c4c3=O)OCO5)cc2)[C@H](O)[C@@H](O)[C@@H]1O

Drug metabolism [1]: metabolite_detected
Molecule: COc1c2c(cc3occ(-c4ccc(O[C@@H]5O[C@H](C(=O)O)[C@@H](O)[C@H](O)[C@H]5O)cc4)c(=O)c13)OCO2

B1: UDP-glucuronosyltransferase 1A7 (Homo sapiens) (protein)
chain: MARAGWTGLLPLYVCLLLTCGFAKAGKLLVVPMDGSHWFTMQSVVEKLILRGHEVVVVMPEVSWQLGRSLNCTVKTYSTSYTLEDQDREFMVFADARWTAPLRSAFSLLTSSSNGIFDLFFSNCRSLFNDRKLVEYLKESCFDAVFLDPFDACGLIVAKYFSLPSVVFARGIFCHYLEEGAQCPAPLSYVPRLLLGFSDAMTFKERVWNHIMHLEEHLFCPYFFKNVLEIASEILQTPVTAYDLYSHTSIWLLRTDFVLEYPKPVMPNMIFIGGINCHQGKPVPMEFEAYINASGEHGIVVFSLGSMVSEIPEKKAMAIADALGKIPQTVLWRYTGTRPSNLANNTILVKWLPQNDLLGHPMTRAFITHAGSHGVYESICNGVPMVMMPLFGDQMDNAKRMETKGAGVTLNVLEMTSEDLENALKAVINDKSYKENIMRLSSLHKDRPVEPLDLAVFWVEFVMRHKGAPHLRPAAHDLTWYQYHSLDVIGFLLAVVLTVAFITFKCCAYGYRKCLGKKGRVKKAHKSKTH
Km [5]: 9.4 µM
Vmax [5]: 4e-05 µmol/min/mg

B2: UDP-glucuronosyltransferase 1A9 (Homo sapiens) (protein)
chain: MACTGWTSPLPLCVCLLLTCGFAEAGKLLVVPMDGSHWFTMRSVVEKLILRGHEVVVVMPEVSWQLGRSLNCTVKTYSTSYTLEDLDREFKAFAHAQWKAQVRSIYSLLMGSYNDIFDLFFSNCRSLFKDKKLVEYLKESSFDAVFLDPFDNCGLIVAKYFSLPSVVFARGILCHYLEEGAQCPAPLSYVPRILLGFSDAMTFKERVRNHIMHLEEHLLCHRFFKNALEIASEILQTPVTEYDLYSHTSIWLLRTDFVLDYPKPVMPNMIFIGGINCHQGKPLPMEFEAYINASGEHGIVVFSLGSMVSEIPEKKAMAIADALGKIPQTVLWRYTGTRPSNLANNTILVKWLPQNDLLGHPMTRAFITHAGSHGVYESICNGVPMVMMPLFGDQMDNAKRMETKGAGVTLNVLEMTSEDLENALKAVINDKSYKENIMRLSSLHKDRPVEPLDLAVFWVEFVMRHKGAPHLRPAAHDLTWYQYHSLDVIGFLLAVVLTVAFITFKCCAYGYRKCLGKKGRVKKAHKSKTH
Km [6]: 5 µM
Vmax [6]: 0.00027 µmol/min/mg

B3: UDP-glucuronosyltransferase 1A10 (Homo sapiens) (protein)
chain: MARAGWTSPVPLCVCLLLTCGFAEAGKLLVVPMDGSHWFTMQSVVEKLILRGHEVVVVMPEVSWQLERSLNCTVKTYSTSYTLEDQNREFMVFAHAQWKAQAQSIFSLLMSSSSGFLDLFFSHCRSLFNDRKLVEYLKESSFDAVFLDPFDTCGLIVAKYFSLPSVVFTRGIFCHHLEEGAQCPAPLSYVPNDLLGFSDAMTFKERVWNHIVHLEDHLFCQYLFRNALEIASEILQTPVTAYDLYSHTSIWLLRTDFVLDYPKPVMPNMIFIGGINCHQGKPLPMEFEAYINASGEHGIVVFSLGSMVSEIPEKKAMAIADALGKIPQTVLWRYTGTRPSNLANNTILVKWLPQNDLLGHPMTRAFITHAGSHGVYESICNGVPMVMMPLFGDQMDNAKRMETKGAGVTLNVLEMTSEDLENALKAVINDKSYKENIMRLSSLHKDRPVEPLDLAVFWVEFVMRHKGAPHLRPAAHDLTWYQYHSLDVIGFLLAVVLTVAFITFKCCAYGYRKCLGKKGRVKKAHKSKTH
Km [7]: 10.3 µM
Vmax [7]: 0.00103 µmol/min/mg

B4: UDP-glucuronosyltransferase 1A8 (Homo sapiens) (protein)
chain: MARTGWTSPIPLCVSLLLTCGFAEAGKLLVVPMDGSHWFTMQSVVEKLILRGHEVVVVMPEVSWQLGKSLNCTVKTYSTSYTLEDLDREFMDFADAQWKAQVRSLFSLFLSSSNGFFNLFFSHCRSLFNDRKLVEYLKESSFDAVFLDPFDACGLIVAKYFSLPSVVFARGIACHYLEEGAQCPAPLSYVPRILLGFSDAMTFKERVRNHIMHLEEHLFCQYFSKNALEIASEILQTPVTAYDLYSHTSIWLLRTDFVLDYPKPVMPNMIFIGGINCHQGKPLPMEFEAYINASGEHGIVVFSLGSMVSEIPEKKAMAIADALGKIPQTVLWRYTGTRPSNLANNTILVKWLPQNDLLGHPMTRAFITHAGSHGVYESICNGVPMVMMPLFGDQMDNAKRMETKGAGVTLNVLEMTSEDLENALKAVINDKSYKENIMRLSSLHKDRPVEPLDLAVFWVEFVMRHKGAPHLRPAAHDLTWYQYHSLDVIGFLLAVVLTVAFITFKCCAYGYRKCLGKKGRVKKAHKSKTH
Km [8]: 70.9 µM
Vmax [8]: 0.001 µmol/min/mg
Km [9]: 87.5 µM
Vmax [9]: 0.00054 µmol/min/mg

B5: UDP-glucuronosyltransferase 1A1 (Homo sapiens) (protein)
chain: MAVESQGGRPLVLGLLLCVLGPVVSHAGKILLIPVDGSHWLSMLGAIQQLQQRGHEIVVLAPDASLYIRDGAFYTLKTYPVPFQREDVKESFVSLGHNVFENDSFLQRVIKTYKKIKKDSAMLLSGCSHLLHNKELMASLAESSFDVMLTDPFLPCSPIVAQYLSLPTVFFLHALPCSLEFEATQCPNPFSYVPRPLSSHSDHMTFLQRVKNMLIAFSQNFLCDVVYSPYATLASEFLQREVTVQDLLSSASVWLFRSDFVKDYPRPIMPNMVFVGGINCLHQNPLSQEFEAYINASGEHGIVVFSLGSMVSEIPEKKAMAIADALGKIPQTVLWRYTGTRPSNLANNTILVKWLPQNDLLGHPMTRAFITHAGSHGVYESICNGVPMVMMPLFGDQMDNAKRMETKGAGVTLNVLEMTSEDLENALKAVINDKSYKENIMRLSSLHKDRPVEPLDLAVFWVEFVMRHKGAPHLRPAAHDLTWYQYHSLDVIGFLLAVVLTVAFITFKCCAYGYRKCLGKKGRVKKAHKSKTH
Km [10]: 32.9 µM
Vmax [10]: 0.00014 µmol/min/mg
Km [11]: 24.6 µM
Vmax [11]: 0.00067 µmol/min/mg
